According to the supplement of paper PMC9170038:

Tested on: MS2 coat protein
Assay: apparent KD of MS2 coat protein; designed switch direction (-1 OFF switch, 1 ON switch): -1; higher = weaker reporter binding
Summary of the method: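 An oligonucleotide input, 200 uM small-molecule ligand, or no input was present during titration of SNAP-549-labelled MS2 coat protein, which was doubled from 0.7 or 1.5 nM to 3 µM. Designed RNA switches had been transcribed on Illumina chips by stalled E. coli RNA polymerase. Apparent KD per design is the median over clusters of curves fitted to normalised cluster fluorescence.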

[1] = Eterna round: R95, input ligand: microRNA oligo, concentration not stated
[2] = Eterna round: R95, input ligand: FMN 200 uM
[3] = Eterna round: R95, input ligand: none
[4] = input ligand: microRNA oligo, concentration not stated

Sequence | apparent KD of MS2 coat protein [1] [nM] | apparent KD of MS2 coat protein (input ligand: FMN 200 uM) [nM] | apparent KD of MS2 coat protein (input ligand: none) [nM] | apparent KD of MS2 coat protein [2] [nM] | apparent KD of MS2 coat protein [3] [nM] | apparent KD of MS2 coat protein [4] [nM]
AAAGAACAUGAGGAUCACCCAUGUGAGGAUAUGCGAAAACCGCUGACAAACCAGACGGGCAGAAGGCAUAUGGU [Birima] (puzzle: Exclusion 1) | 56.2 | – | – | – | – | –
AAAGACCAAGUGAGGAUAUUAUGGACAAUGGAACAUGAGAAGGCACAUGAGGAUCACCCAUGUGAAUAGGGACG [Eternabot (Original) Solution 22] (Eterna round: R97, puzzle: Brourd's mod of Exclusion 4) | – | 33.5 | 19.4 | – | – | –
AAAGAGCGAGGAUAUACGUAUCGGUGCGGCCCGCCGAUGUGACAUGAGGAUCACCCAUGUAGAAGGCGCAGAAA [Excls2-X] (puzzle: Exclusion 2) | 21.3 | – | – | – | – | –
AAAGAGUGAGGAUAUACAUGAGGAUCACCCAUGUACGUAAUACAAUACGGGUGACGACGUAGAAGGCAUUGCUG [Eternabot (Original) Solution 28] (Eterna round: R97, puzzle: Exclusion 3) | – | 198 | 781 | – | – | –
AAAGGUGAGUAGGAUAUCCACGCACGAAUAAAGGGAGAAGGACUUACAUGAGGAUCACCCAUGUAAGGUGGUAA [Orte] (puzzle: Exclusion 6) | 14.3 | – | – | 17.1 | 13.8 | –
AAAGUACAUGAGGAUCACCCAUGUCAGGAUAUUGCCACAAGGCCCGGAGCCCAGAGCGCGAGAAGGGACAUUAG [Eternabot (Original) Solution 12] (Eterna round: R97, puzzle: Exclusion 1) | – | 55.4 | 24 | – | – | –
AAAUAACAAGCGAGAUCCUACAUGAGGAUCACCCAUGUGCUCGUCUUAAUAAGUACUAUCACGAAAGUGAUAGUACA [Mat - Sensor v3 - turn-off var 1 - Eli Mod - D67] (Eterna round: R96, puzzle: Sensor v3, turn-off variant 1) | – | 15.8 | 18.2 | – | – | 333
AAAUAACAAGCGAGAUCCUACAUGAGGAUCACCCAUGUGCUCGUCUUAAUAAGUACUAUCACGAAAGUGAUAGUACA [Mat - Sensor v3 - turn-off var 1 - Eli Mod - D67] (puzzle: Sensor v3, turn-off variant 1) | 471 | – | – | 16.6 | 16 | –
AAAUAAGAAGGAUAUACAAAUUAAAAGGUCCUUAAGGCAAGACAUGAGGAUCACCCAUGUAGAAGGUCUGAAAA [Teati] (puzzle: Exclusion 2) | 23 | – | – | 39.5 | 22.6 | –
AAAUAAUCAGGAUAUACAUGAGGAUCACCCAUGUACCUCUUGUACGAGGGCCGCCCGUGUAGAAGGGAUGACAA [Arralara] (puzzle: Exclusion 3) | 40.1 | – | – | 72.6 | 40 | –
AAAUACAAGUAAAGAUCCUACAUGAGGAUCACCCAUGUGCUCGUCUUAUAAAGUACUAUCACGAAAGUGAUAGUACA [Sensor 3, v1 - 20] (puzzle: Sensor v3, turn-off variant 1) | 13.9 | – | – | 88.6 | 112 | –
AAAUCACAUGAGGAUCACCCAUGUGAGGAUAUGAUACUAUGUACUUCGGUACAUAGUAUCAGAAGGCAUAUGGA [Ex1-3: 32] (Eterna round: R96, puzzle: Exclusion 1) | – | 39.4 | 23.7 | – | – | 20.6
AAAUCACAUGAGGAUCACCCAUGUGAGGAUAUGAUACUAUGUACUUCGGUACAUAGUAUCAGAAGGCAUAUGGA [Ex1-3: 32] (puzzle: Exclusion 1) | 22.9 | – | – | – | – | –
AAAUCGAGACGGAGAUCCGACAUGAGGAUCACCCAUGUCUCGUAAGCUUUUUGCUCGUCUUAUACUCCUCUGUUCUC [Elimod 50 - Jieux - Sensor, turn-off variant 1] (Eterna round: R97, puzzle: Sensor, turn-off variant 1) | – | 22.5 | 22.4 | – | – | –
AAAUCGGAGGAGGAUAUGGUACAGGAAACGGUGCCAGAAGGUUUCACAUGAGGAUCACCCAUGUCAAAUAGCGA [EX6 #59] (Eterna round: R97, puzzle: Exclusion 6) | – | 21.3 | 20.3 | – | – | –
AAAUUAGCAAGUAGGUCCGACAUGAGGAUCACCCAUGUAAUCUAAAAUUACGCUGCACGAAAGUGCGCUCGUCUUAG [Sensor-V1 #12] (Eterna round: R97, puzzle: Sensor, turn-off variant 1) | – | 439 | 385 | – | – | –
AAAUUAGCAAGUAGGUCCGACAUGAGGAUCACCCAUGUUAUCUGAAAUAACGCAGCAUGAUUGUGAGCUCGUCUUAG [Sensor-V1 #6] (Eterna round: R97, puzzle: Sensor, turn-off variant 1) | – | 80.8 | 105 | – | – | –
AACAAACAUGAGGAUCACCCAUGUCAGGAUAUGGCGGCUAGUGUGCCACCGUACACUACCAGAAGGGACUGGGU [Diedtiis] (puzzle: Exclusion 1) | 111 | – | – | – | – | –
AACACACAUGAGGAUCACCCAUGUGAGGAUAUCGUCGAGGUUGUAAUGCCAACCGUGACGAGAAGGCACUUGGG [Exclusion 1 (Mod 3.1 solution 40 by Eternabot)] (Eterna round: R97, puzzle: Exclusion 1) | – | 44.4 | 282 | – | – | –
AACAGGUCAGGAUAUACAUGAGGAUCACCCAUGUAGACUUCUGGUCUACCGAGACCGUGUAGAAGGGACCUGAA [Exclusion 3 (MOD3 of #98 Marzena11)] (Eterna round: R97, puzzle: Exclusion 3) | – | 104 | 35.7 | – | – | –
AACAGUACAGGAUAUACAUGAGGAUCACCCAUGUGAGAUUUAAGUGGCGUACCACAAAGUAGAAGGGUACUGGA [JL Maslow Revisted mod 5] (Eterna round: R96, puzzle: Exclusion 3) | – | 230 | 37.3 | – | – | 29.6
AACAUGGCAGGAUAUUGAAAAUUGCACUUGAGGAUCACCCAAGUGGUUCUGCGGGCGAAGUAAGAAGGGCCUAAAA [Xeraabi] (Eterna round: R97, puzzle: Exclusion 5) | – | 232 | 27.3 | – | – | –
AACCAACAUGAGGAUCACCCAUGUGAGGAUAUAGCUAACGACCAGACCUGGAAUGUUGUUAGAAGGUGCAGGGU [Eternabot (Original) Solution 4] (Eterna round: R97, puzzle: Exclusion 1) | – | 44.4 | 36.2 | – | – | –
